Measurements from patent US20210401931A1, “METHODS AND MATERIALS FOR TREATING CANCER” (Mayo Foundation for Medical Education and Research, priority 2018, published 2021).
Each block holds one molecule with its values, some of them ahead of it.

How the values were obtained:
[1] = biological target: T1, p65 (Homo sapiens, UniProt Q04206); assay: Co-IP of p65 by SFB-tagged RL peptide in 293T cells; type: binding; settings: 48 hours after transfection
T1 construct: endogenous in cells; host or cells: 293T
Protocol: FIGS. 10A-G. (A) Schematic diagram depicting a set of RB-N recombinant protein constructs. Western blot analysis of p65 proteins in PC-3 cells whole cell lysate pulled down by GST or GST-RB-N recombinant proteins. Stars indicate expected molecular weight. (B) Western blot analysis of in vitro transcribed and translated p65 proteins pulled down by GST or GST-RB recombinant proteins. Stars indicate expected molecular weight. (C) Western blot analysis of WCL and co-IP samples in 293T cells 48 h after transfected with indicated constructs. (D) Schematic diagram depicting an evolutionally conserved R-linker region in the N-terminal of RB. FIG. 10D discloses SEQ ID NOS 265 and 271-274, respectively, in order of appearance. (E) Western blot analysis of WCL and co-IP samples in 293T cells 48 hours after transfected with indicated constructs. (F) PC-3 cells were transfected with indicated plasmids. Western blot analysis of HA-RB proteins in PC-3 whole cell lysate pulled down by GST or GST-p65 recombinant proteins. Stars indicate expected molecular weight. (G) Schematic diagram depicting fully positively charged RB-N allows otherwise negatively charged by S249/T252 phosphorylation to bind to negatively charged 166FSLMV170 motif (SEQ ID NO: 286) in EID1. FIG. 10G discloses SEQ ID NOS 265-266 and 275, respectively, in order of appearance. […]

[2] = tested on: NFκB target genes; assay: Expression of NFκB target genes in PC-3 cells (RNA-seq, RT-qPCR); type: cell-based, human; settings: PC-3 cells, IKK-16 5 μM or ACHP 20 μM, 24 hours
Protocol: FIGS. 4A-G. RB globally regulates NFkB transcriptional program in cells. […] (F, G) PC-3 cell were treated with or without palbociclib (5 μM) for 24 hours or PC-3 cells were infected with lentivirus expressing control shRNA or RB-specific shRNA following puromycin selection after 48 hours infection. Cells were harvested for RT-qPCR (F) and ChIP-qPCR (G) analysis of p65 binding at the promotor of PD-L1, GADD45B, NR4A2, and CD83. All data were shown as mean values±SD (n=3). * P<0.05, ** P<0.01, ***P<0.001.
FIGS. 16A-K. Mutual exclusivity of PTEN and MAP3K7 gene deletion in human cancers and CDK4/6 inhibition-mediated blockage of MAP3K7 deficiency-induced death of PTEN-null cells. (A) Genetic alterations of MAP3K7 and PTEN genes in the TCGA prostate cancer dataset. (B) Genetic alterations of MAP3K7 and PTEN genes in lymphoid neoplasm diffuse large B-cell lymphoma, stomach adenocarcinoma, pancreatic cancer, liver cancer, bladder urothelial carcinoma, and lung adenocarcinoma. (C-E) PC-3 cells were infected with lentivirus expressing control or MAP3K7-specific shRNAs. 72 hours after infection, cells were harvested for western blotting (C), cell growth assay (D), and colony formation assay (E). All data were shown as mean values±SD (n=3). ns, not significant, * P<0.05 comparing to the shControl group. (F-H) LNCaP-RF prostate cancer cells were infected with lentivirus expressing control or MAP3K7-specific shRNAs. 72 hours after infection, cells were harvested for western blotting (F), cell growth assay (G), and colony formation assay (H). All data are shown as mean values±SD (n=3). ns, not significant, * P<0.05 comparing to the shControl group. (I-K) PC-3 cells were infected with lentivirus expressing control, MAP3K7 or CHD1-specific shRNAs. 72 hours after infection, cells were treated with DMSO or palbociclib (5 μM). […]
FIGS. 17A-I. Negative regulation of MAP3K7-IKK-NFκB and CHD1-NFκB signaling by RB. […] 72 hours after infection and puromycin selection, cells were injected s.c. into the right flank of NSG mice, and tumor growth was measured for 21 days. […]

[3] = biological target: T2, p65 NFκB protein (human, UniProt Q04206 1-551); assay: GST pull down from PC-3 whole cell lysate, western blot
T2 construct: which one stood in the assay is told under assay; also called endogenous p65; in vitro transcribed and translated p65 (pCMV4 p65)
Protocol: Cells were lysed with IP buffer (50 mM Tris-HCl, pH 7.4, 150 mM NaCl, 1% Triton X-100, 1% sodium deoxycholate, and 1% protease inhibitor cocktails) on ice for more than 30 minutes. GST fusion proteins were immobilized on glutathione-Sepharose beads (GE Healthcare Lifesciences). After washing with lysis buffer, the beads were incubated with cell lysates overnight at 4° C. overnight. The beads were then washed six times with binding buffer and re-suspended in sample buffer. The bound proteins were subjected to western blotting analysis.

[4] = biological target: T2, p65 NFκB protein; assay: co-IP from 293T cells transfected with SFB-tagged constructs (FIG. 10C)
[5] = biological target: T2, p65 NFκB protein; assay: in vitro protein binding assay with in vitro transcribed and translated p65 (FIG. 10A)
[6] = biological target: T3, retinoblastoma protein RB (endogenous) (human, UniProt P06400 2-928); assay: co-IP of endogenous proteins in PC-3 cells, western blot (FIG. 2A)
T3 construct: Endogenous protein of cell lysates, phosphorylation state as in the cells; also called RB1; endogenous RB
T3 sequence (looked up): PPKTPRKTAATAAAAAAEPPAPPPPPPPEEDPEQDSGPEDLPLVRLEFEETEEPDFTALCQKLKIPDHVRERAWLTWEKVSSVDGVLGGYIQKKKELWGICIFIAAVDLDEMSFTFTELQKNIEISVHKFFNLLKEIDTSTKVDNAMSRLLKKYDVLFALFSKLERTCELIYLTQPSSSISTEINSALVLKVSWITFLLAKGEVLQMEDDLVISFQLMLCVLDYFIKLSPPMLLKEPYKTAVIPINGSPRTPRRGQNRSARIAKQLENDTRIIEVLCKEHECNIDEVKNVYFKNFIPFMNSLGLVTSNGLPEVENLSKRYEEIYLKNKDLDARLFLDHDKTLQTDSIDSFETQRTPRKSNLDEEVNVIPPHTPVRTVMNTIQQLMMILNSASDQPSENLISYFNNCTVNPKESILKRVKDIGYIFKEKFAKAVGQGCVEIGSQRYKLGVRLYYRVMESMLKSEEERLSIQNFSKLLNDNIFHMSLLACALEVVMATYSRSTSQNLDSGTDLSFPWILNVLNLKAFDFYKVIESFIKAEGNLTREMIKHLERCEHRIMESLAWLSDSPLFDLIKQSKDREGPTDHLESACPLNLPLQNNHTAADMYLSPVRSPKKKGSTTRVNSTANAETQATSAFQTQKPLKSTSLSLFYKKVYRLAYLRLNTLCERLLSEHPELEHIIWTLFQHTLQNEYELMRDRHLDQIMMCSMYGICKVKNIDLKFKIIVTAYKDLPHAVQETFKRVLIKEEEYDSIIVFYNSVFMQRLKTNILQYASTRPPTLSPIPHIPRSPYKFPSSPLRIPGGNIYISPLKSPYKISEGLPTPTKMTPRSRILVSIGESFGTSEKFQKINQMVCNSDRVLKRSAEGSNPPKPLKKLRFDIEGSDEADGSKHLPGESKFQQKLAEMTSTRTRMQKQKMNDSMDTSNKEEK

T2 sequence (Q04206 whole entry): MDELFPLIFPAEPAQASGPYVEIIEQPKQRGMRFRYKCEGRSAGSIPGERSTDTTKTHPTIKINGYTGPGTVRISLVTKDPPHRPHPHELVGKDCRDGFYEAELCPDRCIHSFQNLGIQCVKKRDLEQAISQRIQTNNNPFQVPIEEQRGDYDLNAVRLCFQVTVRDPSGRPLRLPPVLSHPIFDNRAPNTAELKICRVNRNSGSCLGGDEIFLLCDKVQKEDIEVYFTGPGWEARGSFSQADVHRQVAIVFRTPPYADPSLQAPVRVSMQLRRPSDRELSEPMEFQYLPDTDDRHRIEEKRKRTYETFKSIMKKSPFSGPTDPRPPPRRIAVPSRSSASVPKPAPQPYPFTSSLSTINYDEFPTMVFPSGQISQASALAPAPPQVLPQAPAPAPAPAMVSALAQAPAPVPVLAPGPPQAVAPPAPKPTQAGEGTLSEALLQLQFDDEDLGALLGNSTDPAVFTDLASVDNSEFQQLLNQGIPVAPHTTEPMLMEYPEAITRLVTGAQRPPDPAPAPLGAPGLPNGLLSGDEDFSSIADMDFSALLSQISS
T1 sequence (Q04206 whole entry): as above

immunoprecipitation of p65 by SFB-tagged RL peptide [1]: largely diminished
Molecule: RL-S249A/T252A: unphosphorylable (phosphorylation-resistant) mutant of the RL peptide (NGAPRAPRRGQNRSARIAKQL; left off: small tags and cut ends) [reference compound]

Molecule: O=C(c1ccc(Nc2nccc(-c3cc4ccccc4s3)n2)cc1)N1CCC(N2CCCC2)CC1 [IKK-16]
NFκB target gene expression [2]: decreased

Molecule: N#Cc1c(C2CCNCC2)cc(-c2c(O)cccc2OCC2CC2)nc1N [ACHP]
NFκB target gene expression [2]: decreased

binding result [3]: no binding
B1: GST-RB-M (other, human, UniProt P06400 380-792, looked up)
chain: NTIQQLMMILNSASDQPSENLISYFNNCTVNPKESILKRVKDIGYIFKEKFAKAVGQGCVEIGSQRYKLGVRLYYRVMESMLKSEEERLSIQNFSKLLNDNIFHMSLLACALEVVMATYSRSTSQNLDSGTDLSFPWILNVLNLKAFDFYKVIESFIKAEGNLTREMIKHLERCEHRIMESLAWLSDSPLFDLIKQSKDREGPTDHLESACPLNLPLQNNHTAADMYLSPVRSPKKKGSTTRVNSTANAETQATSAFQTQKPLKSTSLSLFYKKVYRLAYLRLNTLCERLLSEHPELEHIIWTLFQHTLQNEYELMRDRHLDQIMMCSMYGICKVKNIDLKFKIIVTAYKDLPHAVQETFKRVLIKEEEYDSIIVFYNSVFMQRLKTNILQYASTRPPTLSPIPHIPRSPYKF
notes: domain: RB-M; not shown: glutathione S-transferase (GST) tag of the fusion

binding result [4]: binds
B2: SFB-tagged RB-N (other, human, UniProt P06400 1-379, looked up, not shown: small tags and cut ends)
chain: MPPKTPRKTAATAAAAAAEPPAPPPPPPPEEDPEQDSGPEDLPLVRLEFEETEEPDFTALCQKLKIPDHVRERAWLTWEKVSSVDGVLGGYIQKKKELWGICIFIAAVDLDEMSFTFTELQKNIEISVHKFFNLLKEIDTSTKVDNAMSRLLKKYDVLFALFSKLERTCELIYLTQPSSSISTEINSALVLKVSWITFLLAKGEVLQMEDDLVISFQLMLCVLDYFIKLSPPMLLKEPYKTAVIPINGSPRTPRRGQNRSARIAKQLENDTRIIEVLCKEHECNIDEVKNVYFKNFIPFMNSLGLVTSNGLPEVENLSKRYEEIYLKNKDLDARLFLDHDKTLQTDSIDSFETQRTPRKSNLDEEVNVIPPHTPVRTVM
notes: Expressed in mammalian cells (293T, PANC-1, H1299, SK-Hep1)

binding result [5]: binds
B3: GST-RB-NΔ1 (N-terminal portion of RB-N, amino acids 1-266) (other, not shown: a dimerising Fc or GST; small tags and cut ends)
chain: MPPKTPRKTAATAAAAAAEPPAPPPPPPPEEDPEQDSGPEDLPLVRLEFEETEEPDFTALCQKLKIPDHVRERAWLTWEKVSSVDGVLGGYIQKKKELWGICIFIAAVDLDEMSFTFTELQKNIEISVHKFFNLLKEIDTSTKVDNAMSRLLKKYDVLFALFSKLERTCELIYLTQPSSSISTEINSALVLKVSWITFLLAKGEVLQMEDDLVISFQLMLCVLDYFIKLSPPMLLKEPYKTAVIPINGSPRTPRRGQNRSARIAKQ

binding result [6]: no binding
B4: p50 subunit of NFκB (other, human, UniProt P19838 1-433, looked up)
chain: MAEDDPYLGRPEQMFHLDPSLTHTIFNPEVFQPQMALPTDGPYLQILEQPKQRGFRFRYVCEGPSHGGLPGASSEKNKKSYPQVKICNYVGPAKVIVQLVTNGKNIHLHAHSLVGKHCEDGICTVTAGPKDMVVGFANLGILHVTKKKVFETLEARMTEACIRGYNPGLLVHPDLAYLQAEGGGDRQLGDREKELIRQAALQQTKEMDLSVVRLMFTAFLPDSTGSFTRRLEPVVSDAIYDSKAPNASNLKIVRMDRTAGCVTGGEEIYLLCDKVQKDDIQIRFYEEEENGGVWEGFGDFSPTDVHRQFAIVFKTPKYKDINITKPASVFVQLRRKSDLETSEPKPFLYYPEIKDKEEVQRKRQKLMPNFSDSFGGGSGAGAGGGGMFGSGGGGGGTGSTGPGYSFPHYGFPTYGGITFHPGTTKSNAGMKHG
